In the DeepSol protein solubility set:

Experiment: soluble on expression in E. coli; label from the status in PepcDB or PDB records

Question: With “AHHHHHHGSGLISDADKKVIKEEFFSKMVNPVKLIVFVRKDHCQYCDQLKQLVQELSELTDKLSYEIVDFDTPEGKELAKRYRIDRAPATTITQDGKDFGVRYFGLPAGHEFAAFLEDIVDVSREETNLMDETKQAIRNIDQDVRILVFVTPTCPYCPLAVRMAHKFAIENTKAGKGKILGDMVEAIEYPEWADQYNVMAVPKIVIQVNGEDRVEFEGAYPEKMFLEKLLSALS” as the sequence, how does the “soluble on expression in E. coli” value read?
Answer: soluble

Question: Which “soluble on expression in E. coli” value does the source give for “AHHHHHHGSGNNTEVIKMVEVRLENLTKKFGDFTAVNSLNLTIKDGEFLVLLGPSGCGKTTTLRMIAGLEEPTSGKIYFGDRDVTYLPPKDRNVSMVFQSYAVWPHMTVYENIAFPLKIKKYPKDEIERRVKWAAELLQIEELLDRYPAQLSGGQRQRVAVARAIVVEPDVLLMDEPLSNLDAKLRVAMRAEIKKLQQKLKVTTIYVTHDQVEAMTMGDRIAVMNRGKLLQVGSPTEVYLNPNSVFVATFIGAPEMNILEVSVGEGYLEGEGFKIELPDDIMEALRNYIGKTVLFGIRPEHMVIEGISELAHMRRTAKIKGVVDFVEALGTDTIVHVRFEESIIKVKLPGHIPLEIGKEVSVLIDLDKIHIFDKNSEKAII” here?
Answer: soluble

Question: For “AHHHHHHGSGRFKKVPSSLCPMKKPGDVLREILQEKGIKSVGTLSRKWPSGRDIYQELALLLLEGDGAIVELREETAESWDLNGKKVGPSKYAYVRPCFVEKFKVIVDGSEIAKRLPDYPWIIVDLTFWNRHIPKEKDKVALQLRETYAVVRRMYYPRRFAITWVNEEFKKKNKVPLEKVVSYEGSTADFLREKGINRVVLLDPNAEEVLSREDLQERAFIIGGIVDMKGDKKGTTAKIGEVLEKEGIDVLRRKIVLRGDIVGVPDRINHIAEILLRMLYGEDMEKAILAVQAPTHARWRLRKEIPKRKIRYLIDGKLYLVVEKELYDELKQWLNIRWEDFVKVLRETGMVALERRRIHHLNKISVFRFDKSGGKRVILLKRAALLCYNC”, which “soluble on expression in E. coli” value is on record?
Answer: soluble

Question: With “AHHHHHHGSIIELDEFTRVEGNGKAEIVIENGEVKDARVKIVEGPRFFEILTLGRDYWDVPDLEARICAICYIAHSVASVRAIEKALGIDVPESVEKLRELALWGEIIESHALHLYLLALPDVFGYPDAISMIPRHGELVKEGLTIKAFGNAIRELIGGREIHGINIKPGGFGRYPSEEELEKIAEHSKSLIKFARRIVGIFASQEAGGAVGEVLMATSDYLWGDELIINGERVQYYEVDEVPVGYSFAKHSYYKGNPVFVGALPRLLLKGESIEGEAARMLEEYRDKLESKYVIYNNLAQAIELLYALERVPQLVEEILSEGIERGNGEISQESGEGVGYVEAPRGVLVHHYRIENGKVVWSNTITPTAFNQRLMELSLLEEAKRLYGSESEENMKKRLEVIVRAFDPCISCSVHFVKL” as the sequence, how does the “soluble on expression in E. coli” value read?
Answer: soluble

Question: For “AHHHHHHGSISETIRSGDWKGEKHVPVIEYEREGELVKVKVQVGKEIPHPNTTEHHIRYIELYFLPEGENFVYQVGRVEFTAHGESVNGPNTSDVYTEPIAYFVLKTKKKGKLYALSYCNIHGLWENEVTLE”, which “soluble on expression in E. coli” value is on record?
Answer: soluble

Question: Which “soluble on expression in E. coli” value does the source give for “AHHHHHHGSKEEEIHVDPQIVKNITEILKNIKKMKVKQDKRVKWRRENDGRIITFNPITGKICVMNPTLAEIYVMTKNPKGCTFETLIRTLKQRFPSIDEKQLESDILRAMTWLFINGFVYLEDTSKKSKKINIVDVIMEISNQKRGPRQ” here?
Answer: not soluble

Question: For “AHHHHHHGSKVYYPGREWPEEYKRVLEKMKEIIDPVTGDNILDSGVVAGLEVKDRTLKVWLRFESQAEYNILGGAAMAYSKIVGDIMEKFALVMFDNVYVYDLRNNIVGVFEKKK”, which “soluble on expression in E. coli” value is on record?
Answer: not soluble

Question: With “AHHHHHHGSLEKLLEQAGIKLDFDGEEEKKSEIVDEFSGYKINIAVVGVGGSGNNTISRLYDLGVQGADLIAMNTDAQHLAITKAHKKVLLGKHITQGKGSGGDPKVGYLAAEASAQEIAAAVDGYDLVFITAGMGNGTGTGAAPVVARIVKETARNNGRFQEPLVVSVVTFPFKTEGTVRIEKAKWGIQRLLEYSDTVIIIQNDKLLELVPKLPLQSAFRFADELIARMVKGIVETIKLNSIVNIDFADVYSIMKGGGPALIGIGESDSNNRAVDAVNNALTNKMLDVEFGSGEKALVHFTIGPDVSLEEINKAMEVVYEKLSEKSEIKWGAMVDPEMGKTVRAMVIMTGVRSPYILGNVNALTDSSSWVVPKDRRLIGDPRIEKMFPDFNGSRAGRKRPSVGDAILKELGFKEL” as the sequence, how does the “soluble on expression in E. coli” value read?
Answer: soluble

Question: For “AHHHHHHGSLLPDWKIRKEILIEPFSEESLQPAGYDLRVGREAFVKGKLIDVEKEGKVVIPPREYALILTLERIKLPDDVMGDMKIRSSLAREGVIGSFAWVDPGWDGNLTLMLYNASNEPVELRYGERFVQIAFIRLEGPARNPYRGNYQGSTRLAFSKRKKL”, which “soluble on expression in E. coli” value is on record?
Answer: soluble

Question: With “AHHHHHHGSRYFFYPNSVAIFGSFREGAIAREILRNIVEGGFEGKIIPVNPKGGEVEVAGKKFNIKEKLDEPVDVSIIAIPAKLVPELIRGLKGLTKGAVVISAGFSEVGNVELEKELIKAAKEAGIRVIGPNCAGIFGVHAKFYGSFEVRVNPGGLALISQSGAFGGAALAMGNEEGIGFSAFVSYGNAADLDESDFLRFFADDENTRVIGLYIEGVKDGRKFLDALRYAASKKPVIILKAGKSRAGARAAASHTGSLAGSYEIYRAAFRQAGAIEVEEMEELFDAAKAFEMYERAGRRVAIITNSGGPGVLATDKLERLGLEIAKLTEETVEELRSFLPPQCSVKNPVDLIADADYERYKRAIEVVCRDENVDAILVICVPPIFIPSEEIARAVVEANCDKPIIVNFMAGELVREGIKILESKKIKNFPTPERAAKALYWLSLRSSSE” as the sequence, how does the “soluble on expression in E. coli” value read?
Answer: soluble

Question: For “AHHHHHHGSSEVYRLTCIVCPLSCSIEVEIEAGKIKDIKGYTCPRGKEWAIEEIRAPKRVVMSVIPVEGGKLPTVSVKTEKPIPKDKIPELMKMLAKLKLKAPVKVGQVVGEFEGVKIIATREA”, which “soluble on expression in E. coli” value is on record?
Answer: soluble

Question: With “AHHHHHHGSVEQDPYEIVIKQLERAAQYMEISEEALEFLKRPQRIVEVTIPVEMDDGSVKVFTGFRVQHNWARGPTKGGIRWHPEETLSTVKALAAWMTWKTAVMDLPYGGGKGGIIVDPKKLSDREKERLARGYIRAIYDVISPYEDIPAPDVYTNPQIMAWMMDEYETISRRKTPAFGIITGKPLSIGGSLGRIEATARGASYTIREAAKVLGWDTLKGKTIAIQGYGNAGYYLAKIMSEDFGMKVVAVSDSKGGIYNPDGLNADEVLKWKNEHGSVKDFPGATNITNEELLELEVDVLAPAAIEEVITKKNADNIKAKIVAEVANGPVTPEADEILFEKGILQIPDFLCNAGGVTVSYFEWVQNITGYYWTIEEVRERLDKKMTKAFYDVYNIAKEKNIHMRDAAYVVAVQRVYQAMLDRGWVKH” as the sequence, how does the “soluble on expression in E. coli” value read?
Answer: soluble

Question: With “AHPLENAWTFWFDNPQGKSRQVAWGSTIHPIHTFSTVEDFWGLYNNIHNPSKLNVGADFHCFKNKIEPKWEDPICANGGKWTISCGRGKSDTFWLHTLLAMIGEQFDFGDEICGAVVSVRQKQERVAIWTKNAANEAAQISIGKQWKEFLDYKDSIGFIVHEDAKRSDKGPKNRYTV” as the sequence, how does the “soluble on expression in E. coli” value read?
Answer: soluble

Question: Which “soluble on expression in E. coli” value does the source give for “AIAAAVKDSCGKGEMATGNGRRLHLGIPEAVFVEDVDSFMKQPGNETADTVLKKLDEQYQKYKFMELNLAQKKRRLKGQIPEIKQTLEILKYMQKKKESTNSMETRFLLADNLYCKASVPPTDKVCLWLGANVMLEYDIDEAQALLEKNLSTATKNLDSLEEDLDFLRDQFTTTEVNMARVYNWDVKRRNKDDSTKNKA” here?
Answer: soluble

Question: Which “soluble on expression in E. coli” value does the source give for “AIAALKDYALEKEKVKKFLQEFYQDDELGKKQFKYGNQLVRLAHREQVALYVDLDDVAEDDPELVDSICENARRYAKLFADAVQELLPQYKEREVVNKDVLDVYIEHRLMMEQRSRDPGMVRSPQNQYPAELMRRFELYFQGPSSSKPRVIREVRADSVGKLVTVRGIVTRVSEVKPKMVVATYTCDQCGAETYQPIQSPTFMPLIMCPSQECQTNRSGGRLYLQTRGSRFIKFQEMKMQEHSDQVPVGNIPRSITVLVEGENTRIAQPGDHVSVTGIFLPILRTGFRQVVQGLLSETYLEAHRIVKMNKSEDDESGAGELTREELRQIADVIFATVRELVSGGRSVRFSEAEQRCVSRGFTPAQFQAALDEYEELNVWQVNASRTRITFV” here?
Answer: soluble

Question: For “AIACGDCVEKEYPNRGNTCLENGSFLLNFTGCAVCSKRDFMLITNKSLKEEDGEEIVTYDHLCKNCHHVIARHEYTFSIMDEFQEYTMLCLLCGKAEDTISILPDDPRQMTLLF”, which “soluble on expression in E. coli” value is on record?
Answer: soluble

Question: With “AIADEEEEISVVQDMAYDYSGKRLATVSIDREICIWNKKDDWQRTYQWKAHEGPLFGVSWAHPCFGNILATGSYDKRVIIWEEPEASSSYSSSSMDKSTKGWTALAHLVDARDEVRQVQFAPPHLGLLLASGSADGYVRIYTCIDEADLHQWPLLTELDMDSPVVGMSWNPSVDSIPLIVVASHKDCRVWSMDNDTRRWTDWHLFRTSESDTADLSAVAWAPHVGRSFERIALGCEDGSILLFQFPRIQQGNKTNGHEMQPICRLNHGNERIVRLQWNMVGSILASSASDRMVRLWKALPQDGTRWNCFDVVHLNE” as the sequence, how does the “soluble on expression in E. coli” value read?
Answer: soluble

Question: Which “soluble on expression in E. coli” value does the source give for “AIAGTHSGHERNGESARGGALQRLERRLAAAWAEQDAYQIEQLAGMIYDRLVRSDPSAAATVLEQNAHRLAVAGKPAEAAELATRLIRHWRELEQRPFYLARLQQMVLEPLQALSGVEAARARTMVLEAVLAWKRASATVDTEEAAPAELAPVQDALVDAYVLCGEWARAQYQVVCRGGPAERDLAFIDEQLGPHLANDVERMLARTRLVLFYVLAGNLKAGRALVEEIQRKHPTAPMTNFVVILMQVLERARNVDSSKRRLLRNFCDDLKRVYHWAFSLDPELDAMLDDVLKAQGL” here?
Answer: soluble

Question: With “AIAKILLVFDFDNTIIDDNSDTWIVQCAPNKKLPIELRDSYRKGFWTEFMGRVFKYLGDKGVREHEMKRAVTSLPFTPGMVELFNFIRKNKDKFDCIIISDSNSVFIDWVLEAASFHDIFDKVFTNPAAFNSNGHLTVENYHTHSCNRCPKNLCKKVVLIEFVDKQLQQGVNYTQIVYIGDGGNDVCPVTFLKNDDVAMPRKGYTLQKTLSRMSQNLEPMEYSVVVWSSGVDIISHLQFLIKD” as the sequence, how does the “soluble on expression in E. coli” value read?
Answer: soluble

Question: With “AIANDDRATAFNALKNKTVCVQGDGNSRQFYHALVEILSNHSSAIPVNKNGNDFCNAPFAQCPQDTYYFDLVDKSDNLSVKLYWRWAPEFSDIECPMKVPSGFTPGSNYSFPSGPDTLSCDINIMDAGQWELFEKDANVTTAGYSQGVSNLSKCFSSDKSAKYFWIAAYALTPEQLQIHLPYNNTDVERINEVATQGLNSTACVLNGYDVTVNAFNDTKEATTDGIHYLGWINEQVVHLFFNAVTNSSAPTVPSSNVSVTSPNVQLGQVPNLNPSTTNSFLPVQTIVTVPSSSATSASSGLNFGGSSQGGGSGIPQL” as the sequence, how does the “soluble on expression in E. coli” value read?
Answer: soluble

Question: Which “soluble on expression in E. coli” value does the source give for “AIASAADDVNKKRKTAKEVEQEECEIYQNVVFNSIVDSNSKHELVDPSLQKLGAKSRGKVTFLLEQASLELVKIDRKWEILNGDEHQQYMKRKNLNPADYRPDIVHQCVLSLLDSPLNKAGYLDLYIHTTNNVLIKVNPQTRIPRTLKRFCGLTVQLLQDLKIFGHGLNKPLLQIIQNPITNHLPDMCWKTVCSYNCENLMSPHKHAQEVLKKDMNILYVIGAMAHGKIVEEWADEELKISSFPLSASAVCHRICSAYEILYEVL” here?
Answer: soluble

Question: With “AIAVFWGKPLASPRESPRAPGENGKRALHFCAVDEDFVRLFYSFFKSLVGKDVVVELKNDLSICGTLHSVDQYLNIKLTDISVTDPEKYPHMLSVKNCFIRGSVVRYVQLPADEVDTQLLQDAARKEALQQKQ” as the sequence, how does the “soluble on expression in E. coli” value read?
Answer: soluble
